Assay results as given in article PMC10823522, “Antibodies Raised Against an Aβ Oligomer Mimic Recognize Pathological Features in Alzheimer’s Disease and Associated Amyloid-Disease Brain Tissue” (ACS Central Science, 2023).
Each block holds one molecule with its values, some of them ahead of it.

Key:
[1] = target: 2AT-L, covalently stabilized triangular trimer composed of three Aβ17-36 β-hairpin peptides (2AM-LCC); experiment: crystal structure; X-ray crystallographic structure of 2AT-L at 1.8 Å; assembly seen in the crystal lattice
[2] = target: 2AT-L, covalently stabilized triangular trimer composed of three Aβ17-36 β-hairpin peptides (2AM-LCC); experiment: SDS-PAGE; silver stained; Tris buffer at pH 6.8 with 2% (w/v) SDS; 5.0, 2.5, 1.25 and 0.6 μg of 2AT-L or 2AM-L in each lane
[3] = ThT aggregation assay of Aβ42; format: physicochemical; details: 6.25 μM Aβ42 in PBS pH 7.4, 10 μM ThT, 25 °C, quiescent; ex 440 nm, em 485 nm
Protocol: Figure 3 In vitro characterization of pAb2AT-L with 2AT-L and 2AM-L and Aβ42. (A) Indirect ELISA of pAb2AT-L against 2AT-L, 2AM-L, and BSA. (B) Western blot analysis of pAb2AT-L against a concentration gradient of 2AT-L. SDS-PAGE was performed on a 16.5% Tris-Tricine gel (Bio-Rad); 10 μL was loaded in each lane. (C) Indirect ELISA of pAb2AT-L and 6E10 against Aβ42. (D and E) Western blot analysis of pAb2AT-L (D) and 6E10 (E) against a concentration gradient of Aβ42. SDS-PAGE was performed on a 16.5% Tris-Tricine gel (Bio-Rad); 10 μL was loaded in each lane. (F and G) Dot blot analysis of pAb2AT-L (F) and 4G8 (G) against 6.25 μM Aβ42 aggregated over time in PBS. A 1 μL portion of the Aβ42 solution was spotted in triplicate on 0.2 μm nitrocellulose membranes every 30 min for 5 h and then at 96 h. (H and I) Average integrated spot density from the dot blots in F and G. Integrated density for each spot was determined using ImageJ. (J and K) Change in integrated spot density from the 0-h time point. (L) ThT aggregation assay of 6.25 μM Aβ42. The ThT assay was performed at 25 °C under quiescent conditions in PBS (10 mM Na2HPO4, 1.8 mM KH2PO4, 137 mM NaCl, 2.7 mM KCl) at pH 7.4 containing 10 μM ThT. ThT fluorescence was monitored at 440 nm excitation and 485 nm emission. […]

SDS-PAGE = format: physicochemical; details: Aβ42, 16.5% Tris-Tricine gel, 0.25–0.016 mM, 10 μL per lane
cells = details: cited from earlier work
From the text: Like oligomers of full-length Aβ, 2AT-L is toxic toward cells in culture, eliciting toxicity by interacting with the cells and promoting membrane disruption and release of LDH, depleting ATP, and activating caspase-3/7-mediated apoptosis.

Aβ and its aggregates = details: cited from earlier work
From the text: The 6E10 and 4G8 monoclonal antibodies—among the most extensively used Aβ antibodies in Alzheimer’s disease research—were generated by immunizing mice with a peptide fragment that encompassed the N-terminal half of Aβ (Aβ1–24).[58],[59]

[4] = test system: Aβ protofibrils in brain and cerebrospinal fluid; details: Alzheimer's disease transgenic mice; cited from earlier work
From the text: Antibodies that target monomeric, oligomeric, and fibrillar forms of the β-amyloid peptide (Aβ) are valuable tools for Alzheimer’s disease research and have emerged as Alzheimer’s disease therapies.[4],[5] […] These antibodies act by binding Aβ aggregates and facilitating their clearance from the brain, mitigating both the direct and downstream damaging eff ...

stoichiometry N (copies of 2AT-L) [1]: 4
stoichiometry N (copies of 2AT-L) [2]: 4
Molecule: 2AT-L, covalently stabilized triangular trimer composed of three Aβ17-36 β-hairpin peptides (2AM-LCC) (complex)

Molecule: Aβ42: 42-amino-acid alloform of Aβ
time at which ThT-reactive aggregates begin to form [3]: 1 h
time at which ThT-reactive aggregates plateau [3]: 1.75 h
predominant oligomers on SDS-PAGE (SDS-PAGE): migrate at a molecular weight consistent with a trimer and tetramer

Molecule: full-length Aβ: full-length β-amyloid peptide
ATP depletion by full-length Aβ (cells): ATP depletion
LDH release by full-length Aβ (cells): promotes LDH release
caspase-3/7 activation by full-length Aβ (cells): caspase-3/7 activation

B1: Lecanemab: anti-Aβ antibody drug (antibody, chains of the INN, looked up, V domains shown)
VH: EVQLVESGGGLVQPGGSLRLSCSASGFTFSSFGMHWVRQAPGKGLEWVAYISSGSSTIYYGDTVKGRFTISRDNAKNSLFLQMSSLRAEDTAVYYCAREGGYYYGRSYYTMDYWGQGTTVTVSS
VL: DVVMTQSPLSLPVTPGAPASISCRSSQSIVHSNGNTYLEWYLQKPGQSPKLLIYKVSNRFSGVPDRFSGSGSGTDFTLRISRVEAEDVGIYYCFQGSHVPPTFGPGTKLEIK
target selectivity of Lecanemab (Aβ and its aggregates): selectively targets Aβ protofibrils
Aβ protofibrils in brain and cerebrospinal fluid [4]: reduced Aβ protofibrils in the brain and cerebrospinal fluid

B2: Donanemab: anti-Aβ antibody drug (antibody, chains of the INN, looked up, V domains shown)
VH: QVQLVQSGAEVKKPGSSVKVSCKASGYDFTRYYINWVRQAPGQGLEWMGWINPGSGNTKYNEKFKGRVTITADESTSTAYMELSSLRSEDTAVYYCAREGITVYWGQGTTVTVSS
VL: DIVMTQTPLSLSVTPGQPASISCKSSQSLLYSRGKTYLNWLLQKPGQSPQLLIYAVSKLDSGVPDRFSGSGSGTDFTLKISRVEAEDVGVYYCVQGTHYPFTFGQGTKLEIK
target of Donanemab (Aβ and its aggregates): targets N-terminally pyroglutamated Aβ that is aggregated in Aβ plaques
